The source of these data is patent US6027911.

Assay [1] concerns the target Met-Arg-Human Proinsulin Analog (B28 Lys, B29 Pro) (human) (UniProt P01308).
Assay [2] concerns the target Met-Asp-human growth hormone (human) (UniProt P01241).

“bovine dipeptidylaminopeptidase 1 (enzyme)” yielded an extent of conversion of MR-KPB-hPI to KPB-hPI (reverse phase HPLC) in assay [1] of 98%. Besides, the human growth hormone (hGH) conversion yield (reverse phase chromatography) in assay [2] was found to be 37%.
